From PMC2196380

Target: HLA-DM (DMα/DMβ heterodimer) (human (endogenous in B-LCL)) (UniProt P28067)
Test: co-IP

UniProt P28067, sequence (P28067 27-261, chain 1 of 2): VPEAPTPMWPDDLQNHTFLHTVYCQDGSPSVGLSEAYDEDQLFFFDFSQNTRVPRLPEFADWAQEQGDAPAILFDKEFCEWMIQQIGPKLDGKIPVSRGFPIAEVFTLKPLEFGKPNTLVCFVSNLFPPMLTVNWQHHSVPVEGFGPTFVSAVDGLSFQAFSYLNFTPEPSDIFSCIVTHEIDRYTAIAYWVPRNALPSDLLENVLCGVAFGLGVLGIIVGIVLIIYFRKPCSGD
UniProt P28067, sequence (P28068 19-263, chain 2 of 2, further chain): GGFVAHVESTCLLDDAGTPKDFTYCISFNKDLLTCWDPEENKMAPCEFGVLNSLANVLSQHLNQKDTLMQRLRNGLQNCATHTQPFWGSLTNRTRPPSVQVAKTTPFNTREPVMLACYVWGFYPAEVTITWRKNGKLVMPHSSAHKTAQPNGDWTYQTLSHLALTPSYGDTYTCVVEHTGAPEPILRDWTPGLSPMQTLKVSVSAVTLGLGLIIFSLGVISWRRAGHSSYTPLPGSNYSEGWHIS

- percent coprecipitated with DM: 14%
Substance: wild-type HLA-DR3 αβCLIP complexes from T2.DR3 cells (from UniProt P01903 26-254) (peptide-MHC)
